System: MS2 coat protein
Experiment: apparent KD of MS2 coat protein; designed switch direction (-1 OFF switch, 1 ON switch): -1; higher = weaker reporter binding
How it was run: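 Designed RNA switches sharing common flanks were transcribed on Illumina chips by stalled E. coli RNA polymerase. They were titrated with SNAP-549-labelled MS2 coat protein, from 0.7 or 1.5 nM doubling to 3 µM, in Tris-HCl pH 7.5 buffer with KCl, MgCl2, BSA, DTT, tRNA and Tween-20. Titrations ran without input, with 200 uM small-molecule ligand, or with an oligonucleotide input. The apparent KD of each design is the median over its clusters, after curve-fitting of normalised cluster fluorescence.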

[1] = Eterna round: R95, input ligand: microRNA oligo, concentration not stated
[2] = input ligand: microRNA oligo, concentration not stated

With “ACAAGCUUUUUGUUUGUCUACAUGAGGAUCACCCAUGUGGGUGUCAGUCAUGCUGGCGUGUGGUGUCGUGGCAGCGC [Sensor V1 S1] (Eterna round: R97, puzzle: Sensor, turn-off variant 1)” the “apparent KD of MS2 coat protein” value (input ligand: FMN 200 uM) was 978 nM and the “apparent KD of MS2 coat protein” value (input ligand: none) was 1610 nM.
“ACACUGCGAGGAUAUACAUGAGGAUCACCCAUGUUAAGGAAGUCAAGGUUAAUUUAAGGUAGAAGGCGCUUAUU [JR_Ex3_Sub013] (Eterna round: R97, puzzle: Exclusion 3)” was tested, and the “apparent KD of MS2 coat protein” value (input ligand: FMN 200 uM) was 46.2 nM and the “apparent KD of MS2 coat protein” value (input ligand: none) was 39.7 nM.
With “ACACUGCGAGGAUAUACAUGAGGAUCACCCAUGUUUCGGUAGUCAAGGUUAAUUUAAGGUAGAAGGCGCGUAUU [JR_Ex3_Sub010] (Eterna round: R97, puzzle: Exclusion 3)” the “apparent KD of MS2 coat protein” value (input ligand: FMN 200 uM) was 63.8 nM and the “apparent KD of MS2 coat protein” value (input ligand: none) was 33.2 nM.
In the case of “ACAGCGUGAGGAUAUACAUGAGGAUCACCCAUGUGUGGCAGGUUAUCCUGUCAUAAGUGUAGAAGGCACGCUGU [Exclusion 3 - Oddities v.6 ( A small slide from ms2 to fmn)] (puzzle: Exclusion 3)”, the “apparent KD of MS2 coat protein” value [1] is reported as 37.2 nM.
“ACAGCGUGAGGAUAUACAUGAGGAUCACCCAUGUGUGGCAGGUUAUCCUGUCAUGAGUGUAGAAGGCACGCUGU [Exclusion 3 - Oddities v.7 ( A small slide from ms2 to fmn)] (puzzle: Exclusion 3)” was tested, and the “apparent KD of MS2 coat protein” value [1] was 26.2 nM.
For “ACAUCGCCAGAAGUAGGUGACAUGAGGAUCACCCAUGUAGGCUAUUUUGCUCGUUUUAUUUCCACCCUAUUUGCUCC [Eternabot (L1) Solution 13] (Eterna round: R97, puzzle: Sensor, turn-off variant 1)”, the “apparent KD of MS2 coat protein” value (input ligand: FMN 200 uM) was 146 nM and the “apparent KD of MS2 coat protein” value (input ligand: none) was 190 nM.
In the case of “ACAUGACAGCUAGGAUAUAAAUGACAUGAGGAUCACCCAUGUUGUCCCAUGUUGACGAUCACCGAUUAGAAGGAGCCACCCAUG [Ex NG2 #1] (Eterna round: R96, puzzle: Exclusion NG 2)”, the “apparent KD of MS2 coat protein” value (input ligand: FMN 200 uM) is reported as 106 nM, the “apparent KD of MS2 coat protein” value [2] is reported as 110 nM and the “apparent KD of MS2 coat protein” value (input ligand: none) is reported as 89 nM.
With “ACAUGACUGCUAGGAUAUAGAUGACAUGAGGAUCACCCAUGUUAUCCCAUGUUGACGGAAACCGACUAGAAGGAGCAGCAUAUG [Ex NG2 #9] (Eterna round: R96, puzzle: Exclusion NG 2)” the “apparent KD of MS2 coat protein” value (input ligand: FMN 200 uM) was 118 nM, the “apparent KD of MS2 coat protein” value [2] was 43.5 nM and the “apparent KD of MS2 coat protein” value (input ligand: none) was 45.3 nM.
In the case of “ACAUGACUGCUAGGAUAUAGAUGACAUGAGGAUCACCCAUGUUGUCCCAUGUUUAUGGAAACGGACUAGAAGGAGCAGCAUAUG [Ex NG2 #12] (Eterna round: R96, puzzle: Exclusion NG 2)”, the “apparent KD of MS2 coat protein” value (input ligand: FMN 200 uM) is reported as 25.7 nM, the “apparent KD of MS2 coat protein” value [2] is reported as 24.8 nM and the “apparent KD of MS2 coat protein” value (input ligand: none) is reported as 30.2 nM.
With “ACAUGAGGAUCACCCAUGUAAACAUAAUGGCUCAUGUAGAGUCAGGAUAUGCGUGGCGAACAACCGCAGAAGGGACAAGACUGG [Deportation 27 - Jieux - Exclusion NG 3] (Eterna round: R96, puzzle: Exclusion NG 3)” the “apparent KD of MS2 coat protein” value (input ligand: FMN 200 uM) was 25.7 nM, the “apparent KD of MS2 coat protein” value [2] was 20.4 nM and the “apparent KD of MS2 coat protein” value (input ligand: none) was 29 nM.
With “ACAUGAGGAUCACCCAUGUAAUCAUAAUGGCUGAUGUAGAGUCAGGAUAUGUGUGGCUUUCUAUCGCAGAAGGGACAAGACUGG [Deportation 34 - Jieux - Exclusion NG 3] (Eterna round: R96, puzzle: Exclusion NG 3)” the “apparent KD of MS2 coat protein” value (input ligand: FMN 200 uM) was 26.3 nM, the “apparent KD of MS2 coat protein” value [2] was 26.4 nM and the “apparent KD of MS2 coat protein” value (input ligand: none) was 30.7 nM.
For “ACAUGAGGAUCACCCAUGUAAUCAUGAUGGCUGAUGUAGAGGUAGGAUAUGAGUGGCUUUCUAUCUCAGAAGGACCAAGACUGG [Deportation 39 - Jieux - Exclusion NG 3] (Eterna round: R96, puzzle: Exclusion NG 3)”, the “apparent KD of MS2 coat protein” value (input ligand: FMN 200 uM) was 29 nM, the “apparent KD of MS2 coat protein” value [2] was 21.6 nM and the “apparent KD of MS2 coat protein” value (input ligand: none) was 27.3 nM.
“ACAUGAGGAUCACCCAUGUAAUCAUGAUGGCUGAUGUAGAGUCAGGAUAUGUGUGGCUUUCUAUCGCAGAAGGGACAAGACUGG [Deportation 35 - Jieux - Exclusion NG 3] (Eterna round: R96, puzzle: Exclusion NG 3)” was tested, and the “apparent KD of MS2 coat protein” value (input ligand: FMN 200 uM) was 45.6 nM, the “apparent KD of MS2 coat protein” value [2] was 37.7 nM and the “apparent KD of MS2 coat protein” value (input ligand: none) was 43.4 nM.
“ACAUGAGGAUCACCCAUGUACACGUAAUGGCUCAUGUAGAGUGAGGAUAUGUGAGACGAACGAGCACAGAAGGCACAAGACUGG [Deportation 11 - Jieux - Exclusion NG 3] (Eterna round: R96, puzzle: Exclusion NG 3)” was tested, and the “apparent KD of MS2 coat protein” value (input ligand: FMN 200 uM) was 36.1 nM, the “apparent KD of MS2 coat protein” value [2] was 21.8 nM and the “apparent KD of MS2 coat protein” value (input ligand: none) was 45.4 nM.
With “ACAUGAGGAUCACCCAUGUCCGGCUGGUCCGUUUCGGCUGUCGAGGAUAUAGUUCGGUGUCCGCGCUAGAAGGCGGGAGCUGGC [Aenatbe mod 61] (Eterna round: R96, puzzle: Exclusion NG 3)” the “apparent KD of MS2 coat protein” value (input ligand: FMN 200 uM) was 181 nM, the “apparent KD of MS2 coat protein” value [2] was 67 nM and the “apparent KD of MS2 coat protein” value (input ligand: none) was 98.5 nM.
For “ACAUGAGGAUCACCCAUGUCCGGCUGGUCUGUCUCGGCUGUCGAGGAUAUAGCACGGUAUCCGCGCUAGAAGGCGGGAGCCGGU [Aenatbe mod 87] (Eterna round: R96, puzzle: Exclusion NG 3)”, the “apparent KD of MS2 coat protein” value (input ligand: FMN 200 uM) was 216 nM, the “apparent KD of MS2 coat protein” value [2] was 29 nM and the “apparent KD of MS2 coat protein” value (input ligand: none) was 42.8 nM.
For “ACAUGAGGAUCACCCAUGUCCGGCUGGUCUGUCUCGGCUGUCGAGGAUAUAGCUCGGUAUCCGCGCUAGAAGGCGGGAGCCGGC [Aenatbe mod 90] (Eterna round: R96, puzzle: Exclusion NG 3)”, the “apparent KD of MS2 coat protein” value (input ligand: FMN 200 uM) was 98 nM, the “apparent KD of MS2 coat protein” value [2] was 43.5 nM and the “apparent KD of MS2 coat protein” value (input ligand: none) was 72.7 nM.
With “ACAUGAGGAUCACCCAUGUGAAAAGAAUGGCUGACACAGAGAUAGGAUAUGCGUGCAUAUCUAACGCAGAAGGGUCAUGACUGG [Deportation 81 - Jieux - Exclusion NG 3] (Eterna round: R96, puzzle: Exclusion NG 3)” the “apparent KD of MS2 coat protein” value (input ligand: FMN 200 uM) was 25.9 nM, the “apparent KD of MS2 coat protein” value [2] was 22.4 nM and the “apparent KD of MS2 coat protein” value (input ligand: none) was 28.3 nM.
In the case of “ACAUGAGGAUCACCCAUGUGAAAGAAAUGGCUGACUUUGAGCUAGGAUAUUUGUGCAUAUCAAACGAAGAAGGAGCAUUACUGG [Deportation 100 - Jieux - Exclusion NG 3] (Eterna round: R96, puzzle: Exclusion NG 3)”, the “apparent KD of MS2 coat protein” value [2] is reported as 16.4 nM.
In the case of “ACAUGAGGAUCACCCAUGUGACCACAAUGGCUGAUGUAAAGACAGGAUAUGUGUGAAUAUCUAACACAGAAGGGUCUUGACUGG [Deportation 57 - Jieux - Exclusion NG 3] (Eterna round: R96, puzzle: Exclusion NG 3)”, the “apparent KD of MS2 coat protein” value (input ligand: FMN 200 uM) is reported as 53 nM, the “apparent KD of MS2 coat protein” value [2] is reported as 47.1 nM and the “apparent KD of MS2 coat protein” value (input ligand: none) is reported as 47.8 nM.
In the case of “ACAUGAGGAUCACCCAUGUGACCACAAUGGCUGAUGUAACAACAGGAUAUGUGUGAAUAUCUAACACAGAAGGGUUUUGACUGG [Deportation 58 - Jieux - Exclusion NG 3] (Eterna round: R96, puzzle: Exclusion NG 3)”, the “apparent KD of MS2 coat protein” value (input ligand: FMN 200 uM) is reported as 76.9 nM, the “apparent KD of MS2 coat protein” value [2] is reported as 59.3 nM and the “apparent KD of MS2 coat protein” value (input ligand: none) is reported as 75.9 nM.
With “ACAUGAGGAUCACCCAUGUGCACGUAAUGGCUCAUGUAGAGUGAGGAUAUGCGUGGCGAACGCGCGCAGAAGGCACAAGACUGG [Deportation 18 - Jieux - Exclusion NG 3] (Eterna round: R96, puzzle: Exclusion NG 3)” the “apparent KD of MS2 coat protein” value (input ligand: FMN 200 uM) was 129 nM, the “apparent KD of MS2 coat protein” value [2] was 88.8 nM and the “apparent KD of MS2 coat protein” value (input ligand: none) was 99.7 nM.

Reference: the supplement of paper PMC9170038
